Laboratory results from patent US20170314036A1 (AGRESEARCH, published 2017).

T1: Y2H NINJA-AD (Arabidopsis NINJA, At4g28910, full length, with N-terminal GAL4 activation domain); … (Arabidopsis)
T1 construct: Prey fusion in yeast; also called NINJA fused to AD
T1 chain: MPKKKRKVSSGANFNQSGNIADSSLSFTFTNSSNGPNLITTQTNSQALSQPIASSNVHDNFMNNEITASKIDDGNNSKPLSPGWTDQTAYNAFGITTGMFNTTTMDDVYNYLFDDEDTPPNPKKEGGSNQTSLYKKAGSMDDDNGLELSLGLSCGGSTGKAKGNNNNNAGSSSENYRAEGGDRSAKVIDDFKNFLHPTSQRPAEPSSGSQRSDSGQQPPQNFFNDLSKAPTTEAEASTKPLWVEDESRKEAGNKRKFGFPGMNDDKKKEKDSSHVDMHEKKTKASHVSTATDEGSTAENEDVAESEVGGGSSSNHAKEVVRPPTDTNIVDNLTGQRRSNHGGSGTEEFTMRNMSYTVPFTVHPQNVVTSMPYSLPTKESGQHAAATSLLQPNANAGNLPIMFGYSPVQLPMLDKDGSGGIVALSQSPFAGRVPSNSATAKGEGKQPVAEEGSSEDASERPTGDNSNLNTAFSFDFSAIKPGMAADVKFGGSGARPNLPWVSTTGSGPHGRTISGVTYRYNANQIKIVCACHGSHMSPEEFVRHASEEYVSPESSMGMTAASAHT

T2: Y2H BZR1-AD (Arabidopsis BZR1, At1g75080, full length, with N-terminal GAL4 activation domain; pDEST22-BZR1) (Arabidopsis)
T2 construct: Prey fusion in yeast; also called BZR1 fused to AD; Brassinazole Resistant 1
T2 chain: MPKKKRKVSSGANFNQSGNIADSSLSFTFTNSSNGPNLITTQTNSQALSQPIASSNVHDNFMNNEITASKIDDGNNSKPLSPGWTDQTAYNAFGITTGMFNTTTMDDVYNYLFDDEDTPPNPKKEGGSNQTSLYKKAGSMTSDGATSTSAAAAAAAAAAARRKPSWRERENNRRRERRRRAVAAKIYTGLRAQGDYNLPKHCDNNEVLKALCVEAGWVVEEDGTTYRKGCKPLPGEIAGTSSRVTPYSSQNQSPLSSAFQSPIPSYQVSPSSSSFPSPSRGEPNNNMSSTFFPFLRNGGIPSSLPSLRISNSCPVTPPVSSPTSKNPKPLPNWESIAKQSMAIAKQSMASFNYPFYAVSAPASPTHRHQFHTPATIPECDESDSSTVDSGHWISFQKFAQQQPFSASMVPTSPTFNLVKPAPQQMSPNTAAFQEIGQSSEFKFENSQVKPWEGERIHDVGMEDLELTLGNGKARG

T3: Y2H PPD1-AD (Arabidopsis PPD1 full length with N-terminal GAL4 activation domain; pDEST22-PPD1) (Arabidopsis)
T3 construct: Prey fusion in yeast; The legend says only 'PPD'; also called PPD1 fused to AD
T3 chain: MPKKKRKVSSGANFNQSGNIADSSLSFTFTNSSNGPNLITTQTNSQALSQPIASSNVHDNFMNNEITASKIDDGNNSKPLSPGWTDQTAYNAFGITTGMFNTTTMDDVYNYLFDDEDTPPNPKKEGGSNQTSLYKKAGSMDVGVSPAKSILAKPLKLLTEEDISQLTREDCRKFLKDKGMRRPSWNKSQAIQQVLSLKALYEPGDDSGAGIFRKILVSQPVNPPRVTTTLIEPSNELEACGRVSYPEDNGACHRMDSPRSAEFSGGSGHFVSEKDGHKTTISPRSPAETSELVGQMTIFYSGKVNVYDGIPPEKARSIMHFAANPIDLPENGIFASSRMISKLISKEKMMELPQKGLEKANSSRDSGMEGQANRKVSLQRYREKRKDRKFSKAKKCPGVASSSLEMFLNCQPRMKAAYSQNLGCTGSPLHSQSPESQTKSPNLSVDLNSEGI

T4: Y2H RGA1-AD (DELLA protein RGA1 with GAL4 activation domain)
T4 construct: Prey fusion in yeast, tested with PPD1-DBD as bait
T4 chain: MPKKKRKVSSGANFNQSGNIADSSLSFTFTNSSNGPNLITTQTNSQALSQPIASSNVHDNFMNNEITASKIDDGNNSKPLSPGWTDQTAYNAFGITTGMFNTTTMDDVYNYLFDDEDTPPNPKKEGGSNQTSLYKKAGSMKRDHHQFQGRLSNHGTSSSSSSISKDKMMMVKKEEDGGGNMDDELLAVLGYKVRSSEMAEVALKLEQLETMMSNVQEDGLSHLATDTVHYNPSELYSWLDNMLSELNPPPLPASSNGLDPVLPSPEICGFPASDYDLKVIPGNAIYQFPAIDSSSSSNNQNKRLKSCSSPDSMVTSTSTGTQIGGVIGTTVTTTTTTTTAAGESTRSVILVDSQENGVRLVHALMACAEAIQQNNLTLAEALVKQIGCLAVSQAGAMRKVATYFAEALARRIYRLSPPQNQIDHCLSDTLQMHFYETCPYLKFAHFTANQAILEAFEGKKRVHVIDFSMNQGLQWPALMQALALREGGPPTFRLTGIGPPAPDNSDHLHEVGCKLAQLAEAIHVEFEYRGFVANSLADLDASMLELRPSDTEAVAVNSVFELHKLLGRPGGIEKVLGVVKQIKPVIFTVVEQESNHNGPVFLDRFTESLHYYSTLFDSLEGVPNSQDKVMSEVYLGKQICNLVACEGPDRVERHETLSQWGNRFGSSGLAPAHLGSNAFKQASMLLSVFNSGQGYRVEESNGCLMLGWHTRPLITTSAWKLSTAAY

B1: Y2H TPL-DBD (Arabidopsis TOPLESS, At1g15750, full length, with N-terminal GAL4 DNA binding domain; pDEST32-TPL) (other)
chain: MKLLSSIEEACNICRLKKLKCSKEKPKCAKCLKNNWECRYSPKTKRSPLTRAHLTEVESRLERLEQLFLLIFPRENLNMILKMDSLQDIKALLTGLFVQDNVNKDAVTDRLASVETDMPLTLRQHRISATSSSEESSNKGQRQLTVSSRSNQTSLYKKAGSMSSLSRELVFLILQFLDEEKFKETVHKLEQESGFFFNMKYFEDEVHNGNWDEVEKYLSGFTKVDDNRYSMKIFFEIRKQKYLEALDKHDRPKAVDILVKDLKVFSTFNEELFKEITQLLTLENFRENEQLSKYGDTKSARAIMLVELKKLIEANPLFRDKLQFPTLRNSRLRTLINQSLNWQHQLCKNPRPNPDIKTLFVDHSCGPPNGARAPSPVNNPLLGGIPKAGGFPPLGAHGPFQPTASPVPTPLAGWMSSPSSVPHPAVSAGAIALGGPSIPAALKHPRTPPTNASLDYPSADSEHVSKRTRPMGISDEVNLGVNMLPMSFSGQAHGHSPAFKAPDDLPKTVARTLSQGSSPMSMDFHPIKQTLLLVGTNVGDIGLWEVGSRERLVQKTFKVWDLSKCSMPLQAALVKEPVVSVNRVIWSPDGSLFGVAYSRHIVQLYSYHGGEDMRQHLEIDAHVGGVNDISFSTPNKQLCVITCGDDKTIKVWDAATGVKRHTFEGHEAPVYSVCPHYKENIQFIFSTALDGKIKAWLYDNMGSRVDYDAPGRWCTTMAYSADGTRLFSCGTSKDGESFIVEWNESEGAVKRTYQGFHKRSLGVVQFDTTKNRYLAAGDDFSIKFWDMDAVQLLTAIDGDGGLQASPRIRFNKEGSLLAVSGNENVIKIMANSDGLRLLHTFENISSESSKPAINSIAAAAAAAATSAGHADRSANVVSIQGMNGDSRNMVDVKPVITEESNDKSKIWKLTEVSEPSQCRSLRLPENLRVAKISRLIFTNSGNAILALASNAIHLLWKWQRNERNATGKATASLPPQQWQPASGILMTNDVAETNPEEAVPCFALSKNDSYVMSASGGKISLFNMMTFKTMATFMPPPPAATFLAFHPQDNNIIAIGMDDSTIQIYNVRVDEVKSKLKGHSKRITGLAFSNVLNVLVSSGADAQLCVWNTDGWEKQRSKVLPLPQGRPNSAPSDTRVQFHQDQAHFLVVHETQLAIYETTKLECMKQWAVRESLAPITHATFSCDSQLVYASFMDATVCVFSSANLRLRCRVNPSAYLPASLSNSNVHPLVIAAHPQEPNMFAVGLSDGGVHIFEPLESEGKWGVAPPAENGSASGAPTAPSVGASASDQPQR
notes: Bait fusion in yeast; also called TPL fused to DBD
B2: Y2H PPD1-DBD (Arabidopsis PPD1, At4g14713, full length, with N-terminal GAL4 DNA binding domain; pDEST32-PPD1) (other)
chain: MKLLSSIEEACNICRLKKLKCSKEKPKCAKCLKNNWECRYSPKTKRSPLTRAHLTEVESRLERLEQLFLLIFPRENLNMILKMDSLQDIKALLTGLFVQDNVNKDAVTDRLASVETDMPLTLRQHRISATSSSEESSNKGQRQLTVSSRSNQTSLYKKAGSMDVGVSPAKSILAKPLKLLTEEDISQLTREDCRKFLKDKGMRRPSWNKSQAIQQVLSLKALYEPGDDSGAGIFRKILVSQPVNPPRVTTTLIEPSNELEACGRVSYPEDNGACHRMDSPRSAEFSGGSGHFVSEKDGHKTTISPRSPAETSELVGQMTIFYSGKVNVYDGIPPEKARSIMHFAANPIDLPENGIFASSRMISKLISKEKMMELPQKGLEKANSSRDSGMEGQANRKVSLQRYREKRKDRKFSKAKKCPGVASSSLEMFLNCQPRMKAAYSQNLGCTGSPLHSQSPESQTKSPNLSVDLNSEGI
notes: Bait fusion expressed in yeast strain MaV203 (ProQuest two-hybrid system); also called PPD1 fused to DBD; PPD1 bait

Assays:
[1] = biological target: T1, Y2H NINJA-AD (Arabidopsis NINJA, …); assay: yeast two-hybrid (legend of FIG. 6)
Method: (§1) The ProQuest two-hybrid system (Invitrogen) was used to analyse interactions between PPD1, NINJA, TPL, and BZR1. Combinations of bait and prey constructs were used to co-transform yeast strain MaV203 (Invitrogen), with selection on synthetic dropout (SD) SD/-Leu/-Trp agar plates. Transformed strains were tested for interactions using 10 μl droplets of 1 in 10 and 1 in 100 dilutions on SD/-Leu/-Trp/-His plates with different concentrations of 3-aminotriazol (3-AT) (Sigma).

[2] = biological target: T2, Y2H BZR1-AD (Arabidopsis BZR1, …); assay: yeast two-hybrid (legend of FIG. 7)
Method: as §1

[3] = biological target: T3, Y2H PPD1-AD (Arabidopsis PPD1 full …); assay: yeast two-hybrid (legend of FIG. 6)
Method: as §1

[4] = biological target: T2, Y2H BZR1-AD (Arabidopsis BZR1, …); assay: yeast two-hybrid (ProQuest, MaV203, SD/-Leu/-Trp/-His with 3-AT)
Method: as §1

[5] = biological target: T1, Y2H NINJA-AD (Arabidopsis NINJA, …); assay: yeast two-hybrid (legend of FIG. 7)
Method: as §1

[6] = biological target: T4, Y2H RGA1-AD (DELLA protein RGA1 with …); assay: yeast two-hybrid, PPD1-DBD as bait, selective medium with 15 mM 3AT
Source text: The ProQuest two-hybrid system (Invitrogen) was used to analyse interactions between PPD1, and RGA1. Full length coding sequences of PPD1, together with truncation or deletion derivatives of PPD1 (PPD1Δppd, PPD1Δtify, and PPD1Δjas*) (FIG. 5), were Gateway sub-cloned into pDEST32 (N-terminal GAL4DBD) or pDEST22 (N-terminal GAL4AD). When translated these generated the following peptide sequences: 55, 65, 66, 67, 68, 7169, which are PPD1-DBD, RGA1, RGA1-AD, PPD1-ppd-DBD, PPD1-tify-DBD, PP1-jas*-DBD respectively.
Combinations of bait and prey constructs were used to co-transform yeast strain MaV203 (Invitrogen), with selection on synthetic dropout (SD) SD/-Leu/-Trp agar plates. Transformed strains were tested for interactions using 10 μl droplets of 1 in 10 and 1 in 100 dilutions on SD/-Leu/-Trp/-His plates with different concentrations of 3-aminotriazol (3-AT) (Sigma). The PPD1-RGA1 interaction was tested with PPD1-DBD used as bait. Transformed yeast was spotted as a ten-fold dilution on control medium (−2) or selective medium (−3) with 15 mM 3AT. Controls were empty vectors, DBD, GAL4 DNA binding domain, AD, GAL4 activation domain (FIG. 5).

Row | Binder | binding result [1] | binding result [2] | binding result [3] | binding result [4] | binding result [5] | binding result [6]
1 | B1 | binds | binds |  |  |  | 
2 | B2 |  |  | binds | no binding | binds | binds
